Measured values reported in patent US20180271960A1, “METHOD TO TREAT CANCER USING ARGININE DELPETOR AND ORNITHINE DECARBOXYLASE (ODC) INHIBITOR” (Bio-Cancer Treatment International Ltd., priority 2015, published 2018).
Entries after “also recorded” stand apart in the source; their conditions may differ.

Tests used:
[1] = test system: CAPAN-1 pancreatic cancer xenograft; experiment: CAPAN-1 pancreatic cancer xenograft model; assay type: in vivo, mouse; details: CAPAN-1 xenograft; PEG-BCT-100 20 mg/kg IV twice a week; DFMO 2% w/v in drinking water
Procedure: (§1) In one example embodiment, the CAPAN-1 tumour cells are maintained in vitro culture in EMEM medium supplemented with 10% heat inactivated fetal bovine serum at 37° C. in an atmosphere of 5% CO2 in air. The tumour cells are routinely sub-cultured twice weekly. The cells growing in an exponential growth phase are harvested and counted for tumour inoculation.
Each mouse is inoculated subcutaneously at the right flank region with CAPAN-1 tumour cells (5×10^6) in 0.1 ml of PBS (1:1 Matrigel) for tumour development. The treatments start when the mean tumour size reaches 119 mm^3. The date of tumour cell inoculation is denoted as day 0.
(§2) Four treatment groups of animals, with eight animals in each group, are tested. Control group (negative control) receives physiological saline, and the three treatment groups respectively receive 20 mg/kg of PEG-BCT-100 alone, 2% w/v DFMO in drinking water, and combination of 20 mg/kg of PEG-BCT-100 and 2% w/v DFMO. PEG-BCT-100 is administered intravenously, twice a week, until euthanization while DFMO is supplied in drinking water at 2% w/v.

[2] = test system: H1975 lung adenocarcinoma xenografts; experiment: H1975 lung adenocarcinoma xenograft; assay type: in vivo, BALB/c nude mice; details: for median survival: PEG-BCT-100 20 mg/kg IP twice a week
Procedure: (§3) In one example embodiment, ten million lung adenocarcinoma cells from cell lines H1650, H1975, and HCC4006 are engrafted subcutaneously in BALB/cnude mice (4 weeks old with body weight of 10-14 g). Body weight, clinical signs and survival times are recorded.
(§4) Two groups of the mice, with eight mice in each group, are tested. Control group (negative control) receives physiological saline and treatment group receives 20 mg/kg of PEG-BCT-100. PEG-BCT-100 is administered via intraperitoneal (IP) injection, twice weekly, until euthanization.
(§5) In one example embodiment, ten million lung adenocarcinoma cells from cell lines H1650, H1975 and HCC4006 are engrafted subcutaneously in BALB/cnude mice (4 weeks old with body weight of 10-14 g). Body weight, clinical signs and survival times are recorded.
as §2, with “Four” for “Four treatment”, “the mice,” for “animals,”, “mice” for “animals”, “intraperitoneally,” for “intravenously,”

[3] = test system: K-562 leukemia xenograft; experiment: K-562 leukemia xenograft model; assay type: in vivo, mouse; details: K-562 xenograft; PEG-BCT-100 20 mg/kg IV twice a week; DFMO 2% w/v in drinking water
Procedure: as §1, with “K-562” for “CAPAN-1”, “vitro as a suspension” for “vitro”, “RPMI1640” for “EMEM”
Each mouse is inoculated subcutaneously at the right flank region with K-562 tumour cells (5×10^6) in 0.1 ml of PBS/Matrigel (1:1) for tumour development. The treatments start when the mean tumour size reaches 125 mm^3. The date of tumour cell inoculation is denoted as day 0.
as §2

[4] = test system: H1650 lung adenocarcinoma xenografts; experiment: H1650 lung adenocarcinoma xenograft; assay type: in vivo, BALB/c nude mice; details: for median survival: PEG-BCT-100 20 mg/kg IP twice a week
Procedure: as §3, §4, §5
as §2, with “Four” for “Four treatment”, “the mice,” for “animals,”, “mice” for “animals”, “intraperitoneally,” for “intravenously,”

[5] = test system: lung adenocarcinoma cell lines (H23, H358, HCC827, H1650, H1975, HCC2935, HCC4006, and A549); experiment: MTT assay on the panel of eight lung adenocarcinoma cell lines; assay type: cell-based; details: all tested cell lines; MTT assay after treatment for 72 h
Procedure: (§6) The inhibition ratio (IR) and the half maximal inhibitory concentration (IC50) values are determined by a MTT assay.

[6] = test system: HCC4006 lung adenocarcinoma xenografts; experiment: HCC4006 lung adenocarcinoma xenograft; assay type: in vivo, BALB/c nude mice
Procedure: as §3, §4, §5
as §2, with “Four” for “Four treatment”, “the mice,” for “animals,”, “mice” for “animals”, “intraperitoneally,” for “intravenously,”

[7] = test system: A549 lung adenocarcinoma cell line; experiment: MTT assay, growth inhibition of A549 cell line; assay type: cell-based; details: 48 h and 72 h at 0.5 ng/μl and 10 ng/μl
Procedure: as §6

[8] = test system: HCC4006 lung adenocarcinoma cell line; experiment: MTT assay, growth inhibition of HCC4006 cell line; assay type: cell-based; details: 48 h and 72 h at 0.5 ng/μl and 10 ng/μl
Procedure: as §6

[9] = test system: HCC827 lung adenocarcinoma cell line; experiment: MTT assay, growth inhibition of HCC827 cell line; assay type: cell-based; details: 48 h and 72 h at 0.5 ng/μl and 10 ng/μl
Procedure: as §6

[10] = test system: H358 lung adenocarcinoma cell line; experiment: MTT assay, growth inhibition of H358 cell line; assay type: cell-based; details: 48 h and 72 h at 10 ng/μl
Procedure: as §6

[11] = test system: lung adenocarcinoma cell lines (H358, H1650, H1975, and HCC4006); experiment: Intracellular arginine level by arginine ELISA kit; assay type: cell-based; details: all examined cell lines; IC50 concentrations and 0.1 μg/μl
Procedure: In one example embodiment, four lung adenocarcinoma cell lines (i.e. H358, H1650, H1975, and HCC4006), obtained from ATCC, are treated with PEG-BCT-100 at IC50 concentrations and 0.1 μg/μl. Internalization of PEG-BCT-100 by lung adenocarcinoma cells are assessed by immunocytochemistry using anti-PEG-antibodies. Detection is done using anti-rabbit Alexa 488 conjugated secondary antibody and visualization is performed using a fluorescent microscope. The PEG-BCT-100 treated lung adenocarcinoma cells are lysed in RIPA buffer for determination of arginine level by K7733 arginine ELISA kit from Immunodiagnostik.

[12] = test system: H1975 lung adenocarcinoma cell line; experiment: MTT assay, growth inhibition of H1975 cell line; assay type: cell-based; details: 48 h and 72 h at 0.5 ng/μl and 10 ng/μl
Procedure: as §6

[13] = test system: H1650 lung adenocarcinoma cell line; experiment: MTT assay, growth inhibition of H1650 cell line; assay type: cell-based; details: 48 h and 72 h at 10 ng/μl
Procedure: as §6

[14] = PEG-BCT-100 20 mg/kg IP twice weekly, DFMO 2% w/v in drinking water, 20 mg/kg
[15] = PEG-BCT-100 20 mg/kg vs control arm
[16] = PEG-BCT-100 20 mg/kg vs control arm, 20 mg/kg

How did the anti-tumour effect [1] turn out when `NCCC[C@](N)(C(=O)O)C(F)F` [DFMO, α-difluoromethylornithine, reference compound] was run?
The anti-tumour effect was “no significant anti-tumour effect”.

What about the median survival ([2]; DFMO 2% w/v in drinking water) of the same molecule?
The median survival was 18 days.

What about the anti-tumour effect [3] of the same molecule?
Its anti-tumour effect is “no significant anti-tumour effect”.

And the median survival ([4]; DFMO 2% w/v in drinking water)?
The median survival was 17 days.

B1: PEG-BCT-100: pegylated recombinant human arginase I (SEQ ID NO.1, or SEQ ID NO.3 with six histidines), about 6-12 PEG molecules per arginase (protein, UniProt P05089 1-322, looked up)
Arginase-1: MSAKSRTIGIIGAPFSKGQPRGGVEEGPTVLRKAGLLEKLKEQECDVKDYGDLPFADIPNDSPFQIVKNPRSVGKASEQLAGKVAEVKKNGRISLVLGGDHSLAIGSISGHARVHPDLGVIWVDAHTDINTPLTTTSGNLHGQPVSFLLKELKGKIPDVPGFSWVTPCISAKDIVYIGLRDVDPGEHYILKTLGIKYFSMTEVDRLGIGKVMEETLSYLLGRKKRPIHLSFDVDGLDPSFTPATGTPVVGGLTYREGLYITEEIYKTGLLSGLDIMEVNPSLGKTPEEVTRTVNTAVAITLACFGLAREGNHKPIDYLNPPK
modifications: PEG, about 6-12 per arginase; optional His6 tag
What does the source list for B1?
cytotoxicity (cell viability) [5]: induces cytotoxicity in all tested lung adenocarcinoma cell lines; tumour growth [6, 14]: suppresses tumor growth; also recorded: inhibits tumour growth; in vivo ASS1 expression (Western blot) [6, 15]: remains unchanged; in vivo ODC expression (Western blot) [6, 16]: remains negative; also recorded: does not show upregulation of ODC; anti-tumour effect [1]: no significant anti-tumour effect; growth inhibition effect (cell proliferation) [7]: inhibits A549 lung adenocarcinoma cell line proliferation more effectively than ADI; growth inhibition effect (cell proliferation) [8]: inhibits HCC4006 lung adenocarcinoma cell line proliferation more effectively than ADI; growth inhibition effect (cell proliferation) [9]: inhibits HCC827 lung adenocarcinoma cell line proliferation more effectively than ADI; growth inhibition effect (cell proliferation) [10]: inhibits H358 lung adenocarcinoma cell line proliferation more effectively than ADI; intracellular (cytosolic) arginine level [11]: depletes intracellular arginine significantly; also recorded: able to deplete cytosolic arginine level significantly; median survival ([2]; DFMO 2% w/v in drinking water): 15 days; tumour growth [2, 14]: induces lung adenocarcinoma proliferation; also recorded: promotes tumour growth; in vivo ASS1 expression (Western blot) [2, 15]: decreases; in vivo ODC expression (Western blot) [2, 16]: increases; also recorded: over-expressed; also recorded: upregulated; growth inhibition effect (cell proliferation) [12]: inhibits H1975 lung adenocarcinoma cell line proliferation; anti-tumour effect [3]: no significant anti-tumour effect; growth inhibition effect (cell proliferation) [13]: inhibits H1650 lung adenocarcinoma cell line proliferation more effectively than ADI; median survival ([4]; DFMO 2% w/v in drinking water): 10 days; tumour growth [4, 14]: induces lung adenocarcinoma proliferation; also recorded: promotes tumour growth; in vivo ASS1 expression (Western blot) [4, 15]: remains unchanged; in vivo ODC expression (Western blot) [4, 16]: increases; also recorded: over-expressed; also recorded: upregulated
